From the supplement of paper PMC11865577

Experiments:
Assay in all cases: pull-down binding Z-score (relative to library population); higher = stronger binding
[1] = test system: TO-N3 (biotin conjugate); conditions: RNA library: Library-2
In short: (§1)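 Biotin-conjugated small molecule (100 pmol) on streptavidin beads was incubated with 1 μg of heat-folded Cy5- or Cy3-end-labelled RNA library in phosphate/NaCl/KCl buffer at 25 °C for 60 min. Following three washes, RNA was eluted with hot SDS and hybridised at 55.5 °C for 20 h to a DNA barcode microarray. The binding value is a Z-score computed from the library mean and standard deviation, after subtraction of beads without compound and averaging of barcoded replicate probes with the highest and lowest excluded.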

[2] = test system: TO-3-N3-2 (biotin conjugate); conditions: RNA library: Library-2
In short: as §1

[3] = test system: TO-3-N3 (biotin conjugate); conditions: RNA library: Library-2
In short: as §1

[4] = test system: TO-N3-2 (biotin conjugate); conditions: RNA library: Library-2
In short: as §1

[5] = test system: G-clamp-N3 (biotin conjugate); conditions: RNA library: Library-1 (pre-miRNA loops + repeats)
In short: as §1

Sequence | pull-down binding Z-score [1] | pull-down binding Z-score [2] | pull-down binding Z-score [3] | pull-down binding Z-score [4] | pull-down binding Z-score [5]
GCCUCGCUUCCUGCCGGCGCGGC [hsa-mir-1538] | -0.389 | -0.601 | -0.255 | 0.147 | -0.287
UCCACCCUGGUCCAGGUCCACAGCAGUGGA [hsa-mir-4644] | 0.441 | 0.0936 | 0.173 | 0.479 | -0.617
CAAAUCGACUGUCCAAUGGAUUUG [hsa-mir-133a-2] | -0.674 | -0.146 | -0.529 | -0.536 | 2.07
CUGAAAAUACAAAAUGGAAAAUUCCAG [hsa-mir-4494] | -0.0822 | 0.256 | -0.0909 | -0.365 | -1.38
AGCAAGGUGCGUCGUAUCUUGCU [hsa-mir-4804] | -0.702 | -0.581 | -0.499 | -0.798 | 0.816
GCUUAUGUCAUGACCUUGGGCUACUCAGGCUGUCUGCACAAUGAGC [hsa-mir-575] | -0.0339 | -0.342 | -0.544 | 1.66 | -0.804
GCUUCCGCUCUGCAGAGGC [hsa-mir-6822] | 0.0168 | -0.487 | 0.134 | -0.438 | -0.531
UGACUACUUCGAAAAUGGGAAGUAGACA [hsa-mir-7849] | 0.00324 | -0.277 | 0.0977 | -0.497 | 3.04
GUGGCUUGUGGCUGAGUGUCACGCUGC [hsa-mir-6068] | -0.254 | -0.233 | -0.567 | 0.225 | 0.217
CUUGGCACCUUUGGCCUUAG [hsa-mir-4540] | 0.112 | -0.125 | 0.0499 | -0.0687 | 0.795
UCCACAAGGAGGGGAUGACCCUUGUGGG [hsa-mir-4437] | 3.14 | 3.06 | 4.12 | 1.37 | -0.125
UGGACCUCAGGGAAGAGGCUG [hsa-mir-4673] | -0.619 | -0.191 | -0.608 | -0.855 | 0.343
UCCAGCUGUGUGAUAUUCUGCUG [hsa-mir-19b-1] | 0.909 | 0.159 | 0.907 | 0.384 | -0.727
AUGCACCCAUAUUUUAAUAUCAAACUAUGACAAAUU [hsa-mir-3974] | -0.417 | -0.134 | -0.386 | -0.358 | -0.337
CCAAUGGUAUCCAGUGAUUCGUUGA [hsa-mir-4709] | -0.0552 | -0.442 | -0.486 | 0.186 | -0.854
UUUUGCCAUUACUUUUACAGGCAAAA [hsa-mir-548aa-1] | -0.991 | -0.412 | -0.497 | -1.28 | -0.445
UUACCCAACGUCUCUGAGUCUCGGUUUUGAGAGGGUGAGUAA [hsa-mir-7973-1] | 0.268 | -0.0539 | 0.0875 | 0.29 | 0.981
CCUUCUAAUGAGUAUGCUUAACUUGGUAGAAGG [hsa-mir-3914-1] | -0.141 | -0.0963 | -0.108 | -0.858 | 0.508
UCCUGAGCUAGGAGGAUUAGGA [hsa-mir-5093] | -0.07 | -0.0611 | -0.171 | 0.417 | 1.05

Sequence | pull-down binding Z-score [1] | pull-down binding Z-score [2] | pull-down binding Z-score [3] | pull-down binding Z-score [4] | pull-down binding Z-score [5]
AUAGUUUGGGGCUCUGCCCUGCUAUGGGAUAACUAU [hsa-let-7a-3] | -0.227 | -0.115 | -0.227 | 0.141 | 0.889
AGAUGUGUUUCCAUUCCACUAUCAUAAU [hsa-mir-365a] | -0.0846 | -0.128 | -0.141 | -0.292 | -0.718
UCUUCUUUUGGAAGGAAGA [hsa-mir-3122] | -0.591 | -0.532 | -0.175 | -1.53 | 0.729
GCUGAGGUUGCGUUGACGCUCGC [hsa-mir-1292] | 0.384 | -0.0926 | 0.0445 | 1.17 | 0.447
CAGAGUUCCCUUCUUGUGAGCUCAG [hsa-mir-6733] | -0.415 | -0.714 | -0.518 | 0.42 | -0.936
UUUGCCAUUAUAAUGGCAAA [hsa-mir-548ae-1] | -1.37 | -0.855 | -0.806 | -1.71 | -0.11
ACCAUAGUCAUAAGUUAGGAGAUGUUAGAGCUGUGAGU [hsa-mir-4286] | -0.108 | 0.296 | -0.464 | 0.807 | 0.233
GGUUCAAGUUUGGCUCCAUCUUUAUGAAA [hsa-mir-4506] | 0.0775 | 0.109 | -0.0094 | 0.415 | -0.636
AGGCACAUAUGUGAACAUUGUACCA [hsa-mir-5707] | 0.0876 | 0.00393 | 0.023 | -0.108 | -0.48
CAGACGGCUUUCUCUCCGAAUGUCUG [hsa-mir-2276] | -1.12 | -0.376 | -0.908 | -0.639 | -0.958
AUGGAUAUGGGAACUGUGAUGUCCA [hsa-mir-4768] | -0.136 | 0.0446 | -0.305 | 0.232 | 1.17
CAGCCUUGACAACAGGCUG [hsa-mir-3130-2] | 0.391 | -0.184 | 0.503 | -0.289 | -0.151
GGAUGGCCAGGGAAGUAUGCCGGGCCUUGGCAUUUC [hsa-mir-7159] | 0.814 | 0.175 | 0.218 | 1.9 | 2.04
GUAAGAGAGACUCUCGCUUCCUGC [hsa-mir-874] | 0.169 | -0.291 | 0.0696 | 0.462 | -1
UGUUCGCUUUAUUUAUGAUGAAUCA [hsa-mir-539] | -0.916 | -0.121 | -0.769 | -1.01 | 0.0951
GAUGGGAUUAGAAACCAUAUGUCUCAUC [hsa-mir-3617] | -0.25 | -0.165 | 0.0209 | -0.438 | 0.264
UAGGCUGUGCAGGUCCCAAUGGGCCUA [hsa-mir-26a-1] | 0.151 | -0.0454 | 0.169 | 0.528 | 1.56
AUUUCUGUAGCUCUGAGACUAGACCU [hsa-mir-544b] | -0.0563 | -0.376 | -0.442 | 0.409 | -0.0868
